Results on 3 substances are retold here after US20020064828A1.

The target of the test is full-length human presenilin 2 (PS2) expressed in HeLa cells (human) (UniProt P49810). Description: cell-based or functional assay.
For the substance “calmyrin-EF-N mutant (D127N) (from UniProt Q99828 2-191)”, the cell death (floating HeLa cells), fold, on coexpression with PS2 is 1 fold.

In the case of “calmyrin-EF-C mutant (E172Q) (from UniProt Q99828 2-191)”, the cell death (floating HeLa cells), fold, on coexpression with PS2 was 1.05 fold.

The substance “calmyrin-MYR mutant (G2A, myristoylation-deficient calmyrin) (from UniProt Q99828 3-191)” showed a cell death (floating HeLa cells), fold, on coexpression with PS2 of less than 2.09 fold.
